Numbering of substitutions follows the chain as printed.
Target: T1, wild type Cre recombinase, P06956
T1 chain: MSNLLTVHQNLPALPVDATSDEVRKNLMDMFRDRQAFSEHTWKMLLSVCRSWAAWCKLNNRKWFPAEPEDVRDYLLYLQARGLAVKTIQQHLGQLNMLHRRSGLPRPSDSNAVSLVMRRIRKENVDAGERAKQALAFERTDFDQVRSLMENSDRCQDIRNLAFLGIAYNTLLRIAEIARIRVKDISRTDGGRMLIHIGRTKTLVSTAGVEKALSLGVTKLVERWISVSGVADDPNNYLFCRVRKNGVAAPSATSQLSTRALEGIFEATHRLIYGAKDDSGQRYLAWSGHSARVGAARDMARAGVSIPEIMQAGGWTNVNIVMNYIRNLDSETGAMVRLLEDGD

B1: Cre mutant CM2 [C2(+/-)#4] (protein)
chain: T1 chain with I174A, T258L, R259S, E262H, E266G
- catalytic efficiency of recombination of the asymmetric loxP-M7 substrate (wt Cre-CM2 mixture compared with CM1): both the wt Cre-CM2 mixture and CM1 demonstrated comparable catalytic efficiency
- recombination extent after 30 min (loxP-M7 substrate, wt Cre-CM2 mixture, 30 nM enzyme): approximately 20% after 30 min
- recombination extent after 90 min (loxP-M7 substrate, wt Cre-CM2 mixture, 30 nM enzyme): 25-30% after 90 min
- recombination rate (observed rate constant, loxP-M7 substrate, wt Cre-CM2 mixture, 30 nM enzyme): 0.034 and 0.048 min-1, respectively
- substrate recombination in 1 h (in vitro recombination of loxP-M7 DNA substrate, equal wt Cre-CM2 mixture at 30 nM and 60 nM total enzyme): approximately 35% substrate recombination in 1 h
